Consider one molecule from US20230203138A1.

In the experiment the target is SARS-CoV-2 spike trimer (S trimer), soluble ectodomain (SARS-CoV-2), P0DTC2. The experiment is described as follows: cryo-EM structure of Fab 2-4 with S trimer. The following applies: remark: other sources report otherwise.

B1: Fab of antibody 2-4 (Fab, V domains shown)
VH: QVQLVQSGAEVKKPGASVKVSCKASGYTFTGYYMHWVRQAPGQGLEWMGWINPNSGGTNYTQMFQGRVTMTRDTSISTAYMEVSRLRSDDTAVYYCARDRSWAVVYYYMDVWGKGTTVTVSS
VL: QSALTQPPSASGSPGQSVTISCTGTSSDVGGYNYVSWYQQHPGKAPKLMIYEVSKRPSGVPDRFSGSKSGNTASLTVSGLQAEDEADYYCSSYAGSNNLVFGGGTKLTVL
The molecule B1 registered a buried surface area of the epitope on RBD of 751 A2.
